Experimental data as given in the DeepSol protein solubility set.

Test: soluble on expression in E. coli; label from the status in PepcDB or PDB records

Row | Sequence | soluble on expression in E. coli
1 | MGSDKIHHHHHHMENILEIVNLNKSYNGIPALSNINLSVKAGEIHGIVGANGSGKTTLMNILFGNPIIHETGGYQGQIFFKGNRVNFKNCAEAIRQGIGMVHQEFALIPDMTVGENIKLGRENTHSLTDRLFGRKYSFIDWKQDYENAWQTLKRLGISVAVGIKIMDLSVNIRQFIEIAREIDRSDLKLLILDEPTAVLNKNDGLKLIEILKDMSNSEIGIIFISHRLEEVQYVCDKVSVLRDGKLVSQYAKGNIYVNDLAQDMIGHTINKAAAEKREIKNKPLITFKDFSVEMPGEEVKNLNLSVYKGEILGLTSLSGHGKLALGYGMMDMYPVDGEVYYENKKIVKMNARTNIIKGMYVLPDDRQGLGILADQSLESNIVFTGNQIKNMFIRNSAFNFLGFIDHHKTNLHVYKMMLDLDIKCTSIKQKVKELSGGNQQKVCIARALTVDPKLLFVAEPTRGIDISAKEKILNMLIEINRTRNTTIIIASSELDELKRVCDRIAVMVEGKIFKILSPDSPDVDFGLVLSGEEEVDCEKL | not soluble
2 | MGSDKIHHHHHHMENLIKIDTVDQYNKMFGLETLHPLVSVVDLSKSETWPTNFRVNYGIYGLFLKDTKCGDIRYGRQYYDYQEGTVVGFAPGQVTGIELKDGTRPLAHGLLFHPDLIRGTALGRDIKRYSFFSYESNEALHLSEEEKGIFVDCLRKIQIELEHSIDKHSKRLIAMNIELLLDYCLRFYDRQFTTRAETNKDVLVRFERLLDEYLQSDLLRQEGLPTVRYFAEKICLSPNYFGDLIKKETGKTAQENIQDRIISLAKEWIVGTNKTVSQIAYDLGFQYSQHFSRIFKKTVGCTPNEYRKSQMS | not soluble
3 | MGSDKIHHHHHHMENLLEVQQLNKSYKNSEFQLTDITFSVKPGEVVGLIGKNGSGKSTLINTLVGNRHKDNGSLKFFNKEVTENDFKYKEHLGVVFDDLRVPDKLTLQSINKVFTEIYDAWNSDTFFSLIKAFELPTNNQIKTFSRGMRMKAALTIALSHDAKLLILDEATAGMDVSGREHVLEILEDYLGDDRAILISSHISEDIEQLATQLVFMRDGRIILKESKEVLLSQYGIIDQPVEHFNISNEYLIATRRRNDRQISLVNNYQKVPDAQPLKTIDDATKIIMRGEV | not soluble
4 | MGSDKIHHHHHHMERLDVFDCSNVLIASYFTDDRGCAHENREHTLIYLCSGELEIEERGKKTVLHPGDCAFMRRDNRMWLQKKVEDGKPYRSVVLKFSRPFLREFYQTLNRQQIPTDSEREKVSLRVLPSNRPDIRSLFESVIPYFDAGEKPSEDVLKLKMVEGIYVLLNTDRNLYASLFDFVEPWKIDILDYLNENYMCDLSLEEIASYTGRSLATFKRDFAKVSNLTPQKWIVKRRLEAAHGLIKSGKKKVTEACFDVGFKNLSHFSKIYKEAYGVAPSW | not soluble
5 | MGSDKIHHHHHHMERQARIIAFYATNENVGKSTLSIAMANELAHLGKKVLYVEADQVRPSFAVGTGLSHDSKNILELVRKENEYNLSQYICTKQDLLERKMNPRLMQKLHDKMDFLVFPSGYNLAQFPEIQNKELFVTTFIESLVDTEYDSIILSVPTELSEVLSYPILYQSDLVIHVLNGNPRGAIAIKRELQLLEEAKLTLPRMIHVLNMADEDYVEDIEKLSSQKIAVTIPYDRDRTSYEWGMQFGSPQINTKVHHIMEAAGLDIPTQHTSSMKKGLFGLRN | not soluble
6 | MGSDKIHHHHHHMESTMKLATAPDAWGVWYADDPRQTPWERYLDEVRDSGFTATETGPWGYLPTDPSHLTDALGSRGLSVCGSALVHLLAPADAMETLRPRLEQTCGLLKAMKAEWVVLMDDSDLPLPGQSRALSPHDWASMIRNIKDAARYVTEEHGLSFVFHPHVGSGVETEAEVIRLLEETSEDSVGLCFDFGHHAYTGADAVAFMKRYADRIPYYHFKNVDPVLLAHIRQNNINFIEGFQSGVMCELDKGMVDFAEVRDFLATRGFDGYAVYEQDMYPCPPEKPFPIACHNRQVLRELGI | not soluble
7 | MGSDKIHHHHHHMESVYLFSSGTLKRKANTICLETESGRKYIPVENVMDIKVFGEVDLNKRFLEFLSQKRIPIHFFNREGYYVGTFYPREYLNSGFLILKQAEHYINQEKRMLIAREIVSRSFQNMVDFLKKRKVRADSLTRYKKKAEEASNVSELMGIEGNAREEYYSMIDSLVSDERFRIEKRTRRPPKNFANTLISFGNSLLYTTVLSLIYQTHLDPRIGYLHETNFRRFSLNLDIAELFKPAVVDRLFLNLVNTRQINEKHFDEISEGLMLNDEGKSLFVKNYEQALRETVFHKKLNRYVSMRSLIKMELHKLEKHLIGEQVFGSEE | not soluble
8 | MGSDKIHHHHHHMETFHLTRNEMATLLLSLRGWNTKKPLGILQEAWAKSHKKDIESGQSVTAFITTALSPIFEKLIKIDDTDVGFSLNEIVALGNQIENTSFSVTAMQNWVKRDIKEMIGSPQKGKKYSIEQAALLFIVEDLKTALDFESIRKLLRLIVNDPADRSDDLINPVHLYGAYSSLFEELNQGNCLQLNATDTIHTIENIVKERADKIASKFDQVNNEQREAIRNAIIIATLSVHTAYVQMLAKRYVTATLFLQNLDVKP | not soluble
9 | MGSDKIHHHHHHMETKINSKALKAEALRLGFSACGIAPAEPIDQAHQNALKMWLDADRQAGMTYMANHFDKRCDPALLVEGTRCVVSVALNYYPATRIPDEEYQFAWYAYGKDYHDLMREKLATLFRFIQESDVPELNGRMFCDTAPVPERYWAWRAGLGWIGKNTQLIIPHAGSTFFLGELFLNTEADTYDRPQPNRCGRCNRCLQACPTKALETPYSLNAHRCLSYLTIENKSEIPDSIAPFMGNRVYGCDECQKACPWNRFATPCRTPELQPSPEFMNMKKEDWKQLSEEKYRALFKGSAVKRAKYSGLIRNIRQMED | not soluble
10 | MGSDKIHHHHHHMETLRILHTNDLHSHFEHFPKIGRYLKKAQADNSVDEVYTFDAGDFMDRSHPLTDATEGQANIKLMNGFKYTAVTIGNNEGISNPHWVLEHLFDHADFPTVLANLREEDESMPNWAIGHKILTTKKNTRIALIGLTAAYPMTYGPNHWHVKMLGSTMDKELAKINGQYDMLILITHIGLKMDRWLAKNYPQIDLIVGGHSHDLIVQGEKVDHTWITQTGKWGNYVGDIHVELEDHHVTKIVPNTVATASMPEEPEDESVIKGYYEKGKQLLSERKVAKLPEKFADDKIAAVQVSLDAIADFAKTDLAILSSGLFLTPFKSGILTQFDLQNALPHPMHVVRSTLKGSDLWRLVMEIEKNRHYLDHFPLQGMSFRGKIFGQMYYKGIKVDMRKRIVYVNGQEINPDSEYRIACLDHYVLVPFFPTLAIVGENEFLFPQFLREVVGDYLAKKYPLPARSEIND | not soluble
11 | MGSDKIHHHHHHMETRKLAVFVDLATTQNYSRSAERMFLSQSTISKYIMALERDWQVQLFERAHRQVTLTRIGQQLLPRAQAILREERQLQQVLAANTAHNAQSLVVQGLPSLAQYQAFHIITAFTKRYPEVKLQFSEASVDRLAHALDHTNVDIVFTRIFGDQPNNYDVLLNETDQFVVLVPKDDPLAQQAEISLSMLAHESILLLKDTIGEDNPLFSAFQKMHTPQMVYDGQRIDLILEMLNQGDGVSVVMARSFDLTGFDNIKAIPLTPTIRSQMAFMKRPDNHAAVVAKFWAFATKYSQSLSD | not soluble
12 | MGSDKIHHHHHHMEVERLSLKEFCDMVAERKPTPGGGAVGSVVGAMACALAEMVANFTRKKKGYEDVEPEMERIVEAMEEARLKLFDLAKKDMEAFEKVMKAYKSSEGELQNALKEAASVPMDVIRVMKDLAHELEKLAEFGNKNLASDTLNAADLCHAVFQVEKVNVLINLKEISDETFRKNMLEELEEQEAQIEGCYQRVKKMLEGIVWSSK | soluble
13 | MGSDKIHHHHHHMEVKPFRPLIYRKEIDGMISPPFDAITPKQEIELKRNPYNITYLTLPKGRDGVSHARMIMENWIENGVLLRAERDCIIVLKQIFSANSRRITRYGIIARVRVFPENGDVIPHERTFDEFVRDREILMEGIGSQLEPIFLVTLKNELPQYLKIITENMKEDNRYFGPENVENYVYYIYDHKEIQKISNILRNDIAIVADGHHRLQATKNIASRQSGLAREFWSYAMSYVTSIHDEGVLIGGVHRVISSRFRFDADRASKYFYVDQCDTIAGNDPVIYDGRFYCIRPRENVYDNIIDSLNDFLFSKTIGMSTIDLERDVIYTHDYAEVVNLVNSGSFSFGVIMPDWDKAHLVELLLTRKILPQKSTYFYPKIPSGISIDSISEFIVT | not soluble
14 | MGSDKIHHHHHHMEYVIEMNNITKVFPGIVANDDITLQVKQGEIHALLGENGAGKSTLMNVLFGLYQPEQGEIKIKGKPVKITNPNIANDLGIGMVHQHFMLVHNFTVTENIILGNEPKKNGKIAVEEAAKEIKQLSEQYGLAVDPHAKIEDISVGMQQRVEILKTLYRGAEILIFDEPTAVLTPQEIHELIQIMKKLVQEGKSIILITHKLKEIMEVCDRCTIIRKGKGIGTVDVAETDEHKLAELMVGRQVNFKTEKIEAKPMEEVLSIANLIVHDTRKLPAVKGLDLTVRAGEIVGIAGIDGNGQSELIEAITGLRKVESGSIAIKGKEITNWPVRRITEEGIGHIPEDRHKHGLVLDFSVRDNIVLQTYYKNPFSKKGILNFSKITEKAKALIEQFDVRTPSEQTLARALSGGNQQKAIIAREVDRNPDLLIAAQPTRGLDVGAIEFIHKKLIEQRDNGKAVLLLSLELDEILNVSDRVAVIYEGKIVAIVDAKETNEQQLGLLMAGGTGKEKVNTNG | not soluble
15 | MGSDKIHHHHHHMFAMAGFPDKIKTIKKGLDVPIAGEPRQEIDCCARPAKVALLGEEYVGLKPTLLVEVGDRVKKGQTLFEDKKAPGIGFTAPASGVVVEINRGERRVLQSVVIQVEGDEQVTFKAYSDLSRLSREAVQQNLAESGLWTALRTRPFSRVPLLDSEPAAIFVNAMDTNPLAADPRVIIAEQREAFAAGLEVLTYLTSGKIHLCHDAGEALPGADLARVESHRFAGVHPAGLVGTHIHFIAPASLERPVWHLGYQDVIAYGKLFLTGELYTDRVVALGGPTALNPRLLRTQLGAQLSTLVEGEIKPGSNRVVSGSVLAGHTAFGVHDYLGRFHQQISVLAEDAKHQLLPWVRGGADKFSITRAVTSRFKATKRLFDLTTHAGGSHRAMMAFGQLDRVMPLDILPTLLVRDLVVRDTDEAQALGALELDEEDLALCTFVCPGKYDFGRELRICLDIIEREG | not soluble
16 | MGSDKIHHHHHHMFIKNAWYVACRPEEIQDKPLGRTICGEKIVFYRGKENQVAAVEDFCPHRGAPLSLGYVEDGNLVCGYHGLVMGCDGKTVSMPAQRVNGFPCNKAYAVVEKFGFIWVWPGEKALADEAKLPTLEWADHPEWSYGGGLFHIQCDYRLMIDNLMDLTHETYVHSSSIGQKEIDEALPVTKVEGDHVITERYMENVIAPPFWQMALRGNHLADDVPVDRWQRCHFFAPSNVHIEVGVAHAGHGGYHAPKDKKVSSIVVDFITPETETSHWYFWGMARNFQPDNAELTDQIREGQGKIFTEDLEMLEQQQQNILNNPHRKLLMLNIDAGGVQSRKVIDRLLAEENKTPPETSTQKFPNIRII | not soluble
17 | MGSDKIHHHHHHMFISDVHLGSKAAKADFLIDFLRYHDADIIYLVGDIVDGWRLRRSWHWPQSHNDVVQKLLRKARKGASITYIAGNHDEFARQFQGVHFGGIVVADRAIHETADGKRLLVIHGDQFDTVVHNQRWLAYLGDHAYDAAMIVNRVVTRLRQLLGLPYWSFSSWAKVKVKKAVNFIGSFQTVLTEEARRSHVDGVICGHIHHAAIENFDDVRYINTGDWVESCTAVVEHFDGRMEILTWAQVLPESFDEPFIPMLIEDRVGQAA | not soluble
